Assay results reported in the nanobody polyreactivity screen of Harvey et al. (2022).

Test: yeast display, Sf9 membrane polyspecificity reagent, FACS + sequencing; frameworks hold sequencing errors
How it was run: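 Polyreactivity labels are assigned by the sorting gate from which each nanobody was recovered. The gates were low and high (top ~1%), set on anti-HA fluorescence for expression and streptavidin fluorescence for reagent binding. Before sorting, galactose-induced (36–48 hours) yeast display cells were stained for 1 hour at 4 °C with 10% biotinylated, detergent-solubilized Sf9 membrane reagent.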

| Sequence | polyreactivity (PSR sort gate) |
| --- | --- |
| QVQLVESGGGLVQAGGSLRLSCAASGLTFSYYTMGWYRPAPGKERELVAAITSSSGRTYYADSVKGRFSISRDNAKNTVYLQLNSLKPEDTAVYYCAADRWYREYDYWGLGTQVTVSS | low polyreactivity |
| QVQLVESGGGLVQAGGSLRLSCAASGRIFYLNAMGWYRQAPGKERELVAAISSRGSRTYYADSVKGRFTISRDNAKNTVYLQMNSLKPEDTAVYYCNVRQRKQPDTDDYWGQGTQVTVSS | high polyreactivity |
| QVQLHESGGGMVQAGGSLRLSCAASGTISYAGPMGWYRQAPGKEREFVAGIGVGSNTNYADSVKGRYTIIRDNAKNTVYLKMNSLKPEDTAVYYCGVGVYAQLGRPYWGQGTQVTVSS | low polyreactivity |
| LVQHVESGGGLVKAGGSLRLTCSASGITFARYAMGWYRQAPGNERELVAAISRSVGSTYADSVKGRFTTSRDNAKNTVYLKMNSLKPEDTAVYYCHARYKSRLYPRYDYWGQGTQVTVSS | high polyreactivity |
| QVQLVESGGGLVQAGGSLRLSCAASGSIIPGYTMGWYRQAPGKERELVAAISRRGGSTYYADSVKGRFTISRDNAKNTVYLQMNSLKPEDTAVYYCAASLWYRISKYDYWGQGTQVTVSS | high polyreactivity |
| QVQLVESGGGLVQAGGSLRLSCAASGSIFRKYAMGWYRQAPGKDRELVAAISKRGGSTYYADSVKGRFTISRDNAKNTVYLQMNSLKPEDTAVYYSNALRRYVSVRPTKSDYWGQGTQVTVSS | high polyreactivity |
| QVQLVESGGGLVQAGGSLRLSCAASGSTFAFNAMGWYRHAPGKERELVATISQSGGSTYYADSVKGRFTFSRDNAKNTVYLQKNSLKPEDTSVYYCAKRYWSKWYGRYDYWRQGTQVTVSS | low polyreactivity |
| QVQLVESGGGLVQAGGSLRLSCAASGYTFQWYDMGWYRQAPGKERELVASISWRGGSTYYADSVKGRFTISRDNAKNTVYLQMNSLKPEDTAVYYCAASLWPDYEYDYWGQGTQVTVSS | low polyreactivity |
| QVQLVESGGGLVQAGGSLRLSCAASGSIFFYNAMGWYRQAPGKERELVAAITTRGGSTYYADSVKGRFTISRDNAKNTVYLQMNSLKPEDTAVYYCARSSRGKLDYWGQGTQVTVSS | low polyreactivity |
| QVQLVESGGGLVQAGGSLRLSCADSGSIFGPYAMGWYRQAPGKEREFVAAISRSGTRTNYADSVKGRFTISRDNAKNTVYLQMNSLKPEDTAVYYCNARYVSASRNRGKSRYDYWGLGTQVTVSS | high polyreactivity |
| QVQLVESGGGLVQAGGSLRLSCAASGRTIYQYAMGGYRQATGKARELDAAISRGGSTNFADSLKGRFTISRDNAKNTVYLQMNSLKPEDTAVYYCASWYKFLSLKRLYERDYWGQGTQVTVSS | high polyreactivity |
| QVQLVESGGGLVQAGGSLRLSCAASGSNFDPIVMGGYRKAPGKERELVAAIDVSGGSTYYADSVKGRFTISRDNAKNTVYLQMNSLKPEDTAVYYCAADAEGSASKYDYWGQGTQVTVSS | low polyreactivity |
| QVQLVESGGGLVQAGGSLRLSCAASAITFYDYPMGWYRQAPGKERELVAAITWNGGDTYYADSVKGRFTISRDNAKNTDYLQMNSLKPEDTAVYYCNATRHYFGGFHYEYYYWGQGTQVTVSS | low polyreactivity |
| QVQLVESGGGLVQAGGSLRLSCAASGSTFDNNGMGWYRQAPGKERELVASITFNVGSTYYADSVKGRFTISRDNAKNTVYLQMNSLKPEDTAVYYCAADDLNLSQALGYDYWGQGTQVTVSS | low polyreactivity |
| QVQLVESGGGLVQAGGSLRLSCAASGRIFVYNVMGWYSQSPGKERELVAAISWGTGSTYADSVKGRFTISRDNAKNTVYLQMNSLKPEDTAVYYCADDSFIPPYDHWGQGTQVTVSS | low polyreactivity |
| QVQLVESGGGLVQAGGSLRLSCAASGFTFGPYDLGWYRQAPGKERELVAAITDSSGSTHYADSVKGRFTISRDNAKNTVYLQMNSLKPEDTAVYYCAADDSSRTTYDYWGQGTQVTVSS | low polyreactivity |
| QVQLVESGGGLVQAGGSLRLSCAASGSIFISYARGWYRQAPGKERELVAAITWSGDSTYYADSVKGRFTISRDNAKNTVYLQMNSLKPEDTAVYYCAADWYFRNQRGYYWGQGTQVTVSS | low polyreactivity |
| QVQLVESGGGLVQAGGSLRLSCAASGITFSPYTRGWYRQATGKERELVAAINDGAITYYADSVKGRFTISRDNAKNTVYLQMNSQKPEDTAVYYCAAAAWGTDPFSTDYASYDYWGQVTQVTVSS | low polyreactivity |
| QVQLVESGGGLVQAGGSLRLSCAASGSTFTLNAMGWYRQAPGKERELVAAITTSGGSTYYADSVKGRFTISRDNAKNTVYLQMNSLKPEDTAVYYCNADGPWREVERPFRKEGNYWGQGTQVTVSS | low polyreactivity |
| QVQRVESGGGLVQAGGSLRLSCAASGLTFRRYGMGWYRQAPGKEREWVASISSRGGNTYYADSVKGRLTISRDKAKNTVYLQMNSRKPEETAVYYCAARHVLYGYYLYDYWGQGTQVTVSS | high polyreactivity |
| QVNLVESGGGLVQAGGSLRLSCAASGSIFVGYAMRWYRQAPGKERELVAAISSNSASTYYADSVKGRFTISRDNAKNTLYLQMNSLKPEDTEVYYCATAYRSYWLNDYWGQGTQVTVSS | low polyreactivity |
| QVQLVESGGGLVQAGGSLRLSCAASGSTFSRNAKGWYRQAPGKERELVAAITRSGGSTYYADSVKGRFTISRDNAKNTVYLQMNSLKPEDTAVYYCAVAVPRGVYLYDYWGQGTQVTVSS | low polyreactivity |

| Sequence | polyreactivity (PSR sort gate) |
| --- | --- |
| QVQLVESGGCLVQAGGSLRLTCAASGFIFYRYAMGWYRHAPGKESELVAAISKSGSSTYYADSVKGRFTISRDNAKNTVYLQMNSLKPEDTAVYYCARDRQSRSLLEDDYWGQGTQVTVSS | high polyreactivity |
| QVQLVESGGGIVQAGGSLRLSCAASGFILDYNAMGWYRQAPGKERELVATITGRGDRTYYADSVKGRFTISRDNAKNTVYLQMNSLKPEDTAVYDCAAGFDGSRHPGFDSWGQGTQVTVSS | low polyreactivity |
| QVQLVESGGALVQAGGSLRLTCAASGRTLYLYAMGWYRQAPGKEREFVAAINSSGDSTYYADSVKGRFTISRDNAKNTVYLQMNSLNPEDTAVYYCNVAWFRHEYDYWGQGTQVTVSS | low polyreactivity |
| QVQLVESGGGLVQAGGSLRLSCAASGSIFAVYVMGWYRQAPGKDRELVAAIRRGGTTTYADSVKGRFTISRDNAKTTVYLQMNSLKPEDTAVYYCAADSYARYLYSYYSPYDYWGQGTQVTVSS | low polyreactivity |
| QVQLVESGGGLVQAGGSLRLSCAASGSTFVSNVMGWYRQAPGKERELVAAITSGGSTYYADSVKGRFTISRDNAKNTVYLQMNSLKPEDTAVYYCAAGGRWARWLFPSRYDYWGQGTQVTVSS | low polyreactivity |
| QVQLVESGGGLVQAGGSLRLSCAASGRIFGPYVMGWYRQAPGKERELVAAISTSGTSTYYADSVKGRFTISRDNAKNTVYLQMNSLKPEDTAVYYCAKRSGARHRLMDYWGQGTQVTVSS | low polyreactivity |
| QLQLVESGGGLVQAGGSLRLSCAASGRTFFGYAMGWYSQAPGKERELVATIDGSDGSTFYADSGKGRFTISRDNAKNTVYLQMNSLKPEDTAVYYCAAENFWQTKEYDYWGQGTQVTVSS | low polyreactivity |
| QVQLVESGGGLVQAGGSLRISCAASGSIFRGYGMGWDRQAPGKERELVAAINYSGGSTYYADSVKGRYTISRDNAKNTVYLQMNSLKPEDTAVYYCNKVYYRQRGEYYYWGQGTQVTVSS | high polyreactivity |
| QVQLVESGGGLVQAGGSLRLSCAASGSIFSRYAMGWYRQAPGKERELVAAISRRRGTTYYADSVKGRFTISRDNAKNTVYLHMNSLKTEDTAVYYCAAVFVTQSFIYDYYYWGQGTQVTVSS | high polyreactivity |
| QVQLEESGGGLVQAGGSLRLSCAASGITFVGNAMGWYRQAPGKERELVAGIRGNGGSTYYADSVKGRFTISRDNAKNTVYLQMHSMNPEDTAVYYCAAAAYYADFDYWGQGTQVTVSS | low polyreactivity |
| QVHLVESGGGLVQAGGSLRISFAASGRTFPYYDMGWYRQAPGKERELVAAINSGGRTNYADSVKGRFTISRDNAKNTVYLQLNSLKPEDTAVYYCTKRGHPSRLGYYYWGLGTQVTVSS | low polyreactivity |
| QVQLVESGGALVQAGGSLRLSCAASGSIFVPYTMGWYRQAPGKERELVSSISYSGGTTYYADSVKGRFTISRDYAKNTVYLQMNSLKPEDTAVYYCAADWDESYSYRRYSHYDYWGQGTQVTVSS | low polyreactivity |
| QVQLVESGGGLVQAGGSLRLICGASGLTSWYNAMGWYRQAPGKEREFVAAISFSGGRTFYADSVKGRFTISRDNAKNTVYLQMNSLKPEDTAVYYCNADVYGFDYWGQGTQVTVSS | high polyreactivity |
| QVQLVESGGGLVQAGGSLRLSCAASGSIFRGNAMGWYRQAPGKERELVATITNGGSTNYADSVKGRFTISRDNAKNTVYLQMNSLKPEDTAVYYCNADHSYHIASTRHVDYWGQGTQVTVSS | low polyreactivity |
| QVQLVESWGGLVQAGGSLRLSCDASGSTFDGNDMGWSRPAPGKQRELVAAITIGGGSTYYADSVKGRFTISRDNAKNTVYLQMNSLKPEDTADYYCATEWVTGSEDYDYWGQGTQVTVSS | low polyreactivity |
| QVQLVESGGGLVQAGGSLRLSCAASGSIFGGYTMGWYRQAPGKERELVAAISRRGGNTYYADSVKGRFTISRDYAKNTVYLHMKSMKPEDTAVYYCAVRWPSARIPVKLDYWGQGTQVTVSS | high polyreactivity |
| QVQLVESGGGLVQAGGSLRLSCAASGSIFEWYAMGLYRQAPGKETELVAAISSGGRTYYADSVKGRFTISRDNAKNTVYLQMNSLKPEDTAVYYCAGRDVDHVGGSKYYYWGQGTQVTVSS | high polyreactivity |
| QVQLVESCGGLVQAGGSLRLSCAASGSTIVSNAMGWNRQAPGKERDLVAAITSGGTTNYADSVKGRFTISRDNAKNTVYLQMISLKPEETAVYYCAKRETVYYVNHPFTYSHDYCGQGTQVTVSS | low polyreactivity |
| QVQLVESGGGLVQAGGSLRLSCAASGRTFRSNAMGGYRQAPGKERELVAAITYSGDRTYYADSVKGRFTISRDNAKNTVYLQMNSLKPEDTAVYDCNKYSRQYTYGYWGQGTQVTVSS | high polyreactivity |
| QVQLVESGGGLVQAGGSLRLSCAASGRIIVDNAMGWYRQAPGKERELVAAITNGGSTSYADSVKGRFTISRDNAKNTVYLQMNSLKPEDTAVYYCNADEDLRGYDYWGQGTQVTVSS | low polyreactivity |
| QVQLVESGGGLVQAGGSLSLSCAASGFIFVPYAMGLSRQAPGKERELVARITWSGGRTYYADSVKGRFTISRDNAKNTVYLQLNSLKPEDTAVYYCNADVYGFDYWGQGTQVTVSS | high polyreactivity |
